{
  "source": "patent US20240352132A1",
  "key": {"[1]": {"biological_target": "HGFR protein extracellular domain with the His tag (human) (UniProt P08581)", "test": "competition ELISA, blocks bio-HGF-His on coated HGFR-His"}, "[2]": {"biological_target": "HGFR protein extracellular domain with the His tag (human) (UniProt P08581)", "test": "SPR Biacore T200, antibody captured on Protein A, antigen in flow, 1:1 fit"}, "[3]": {"biological_target": "human EGFR protein extracellular domain with the His tag (human) (UniProt P00533)", "test": "SPR Biacore T200, antibody captured on Protein A, antigen in flow, 1:1 fit"}},
  "data": [
    {"substance": "MCLA (bispecific antibody)", "values": [
      {"measurement": "IC50", "setting": "[1]", "result": 1.36, "unit": "µg/mL"},
      {"measurement": "Max (%)", "setting": "[1]", "result": 94.1, "unit": "%"},
      {"measurement": "Kd", "setting": "[2]", "result": 10.3, "unit": "nM"},
      {"measurement": "koff", "setting": "[2]", "result": 0.000303, "unit": "s⁻¹"},
      {"measurement": "kon", "setting": "[2]", "result": 29500, "unit": "M⁻¹ s⁻¹"},
      {"measurement": "Kd", "setting": "[3]", "result": 69.1, "unit": "nM"},
      {"measurement": "koff", "setting": "[3]", "result": 0.00473, "unit": "s⁻¹"},
      {"measurement": "kon", "setting": "[3]", "result": 68500, "unit": "M⁻¹ s⁻¹"}
    ]}
  ]
}
